Results: article PMC8294335 (Molecular Cell, 2021)

Target: the molecule itself
Test: cryo-EM structure

B1: GFP-HCN4ΔC (rabbit HCN4 carrying an internal deletion from residues 783 to 1064, with N-terminal decahistidine-eGFP tag) (natural protein)
chain: MDKLPPSMRKRLYSLPQQVGAKAWIMDEEEDAEEEGAGGRQDPRRRSIRLRPLPSPSPSPSAAAAAAGGAESRGAALGGAADGEGPARGAAKSSTNGDCRRFRGSLASLGSRGGGGGGGSTGGGSHGHLHDSAEERRLIAEGDASPGEDRTPPGLAAEPERPGAPAPPAASPPQVPSSCGEQRPADAAVKVEGGAAAGDQILPEAEARLGQAGFMQRQFGAMLQPGVNKFSLRMFGSQKAVEREQERVKSAGFWIIHPYSDFRFYWDLTMLLLMVGNLIIIPVGITFFKDENTTPWIVFNVVSDTFFLIDLVLNFRTGIVVEDNTDIILDPRRIKMKYLKSWFVVDFVSSIPVDYIFLIVETRIDSEVYKTARALRIVRFTKILSLLRLLRLSRLIRYIHQWEEIFHMTYDLASAVVRIVNLIGMMLLLCHWDGCLQFLVPMLQDFPDDCWVSLNNMVNNSWGKQYSYALFKAMSHMLCIGYGRQAPMGMSDVWLTMLSMIVGATCYAMFIGHATALIQSLDSSRRQYQEKYKQVEQYMSFHKLPPDTRQRIHDYYEHRYQGKMFDEESILGELSEPLREEIINFNCRKLVASMPLFANADPNFVTSMLTKLRFEVFQPGDYIIREGTIGKKMYFIQHGVVSVLTKGNKETKLADGSYFGEICLLTRGRRTASVRADTYCRLYSLSVDNFNEVLEEYPMMRRAFETVALDRLDRIGKKNSILLHKVQHDLSSGVSNYQENAIVQRIVQHDREMAHCARRAQATTPVAPAIWTPLIQAPLQAAQDLKLISASQPALPQDGAQTLRRASPHSSSGESVAALPPFPRAPGRPPGAGPGQHVTLTLPRKASSGSLPPPLSLFGPRAAPAGGPRLTAAPQREPGAKSEPVRSKLPSNL
stoichiometry N: 4
